Source: paper PMC3281585 (Science (New York, N.Y.), 2011)

B1: gp44 protein of the T4 clamp loader (natural protein, bacteriophage T4)
chain: MITVNEKEHILEQKYRPSTIDECILPAFDKETFKSITSKGKIPHIILHSPSPGTGKTTVAKALCHDVNADMMFVNGSDCKIDFVRGPLTNFASAASFDGRQKVIVIDEFDRSGLAESQRHLRSFMEAYSSNCSIIITANNIDGIIKPLQSRCRVITFGQPTDEDKIEMMKQMIRRLTEICKHEGIAIADMKVVAALVKKNFPDFRKTIGELDSYSSKGVLDAGILSLVTNDRGAIDDVLESLKNKDVKQLRALAPKYAADYSWFVGKLAEEIYSRVTPQSIIRMYEIVGENNQYHGIAANTELHLAYLFIQLACEMQWK

Legend:
crystal structure = biological target: the molecule itself; assay: crystal structure
[1] = biological target: B1; assay: crystal structure

B1
binding result (crystal structure): binds

B2: gp62 protein of the T4 clamp loader (natural protein, bacteriophage T4)
chain: SLFKDDIQLNEHQVAWYSKDWTAVQSAADSFKEKAENEFFEIIGAINNKTKCSIAQKDYSKFMVENALSQFPECMPAVYAMNLIGSGLSDEAHFNYLMAAVPRGKRYGKWAKLVEDSTEVLIIKLLAKRYQVNTNDAINYKSILTKNGKLPLVLKELKGLVTDDFLKEVTKNVKEQKQLKKLALEW
binding result [1]: binds
